Measurements reported in FireProtDB (doi:10.1021/bi034132r).
Where “and” joins values, the source holds several entries; their conditions need not be identical. Equal values may be shown once.

Conditions: Saccharomyces cerevisiae (strain ATCC 204508 / S288c), pH 7, 25 °C, GdnHCl, CD, phosphate 0.1 M, reversible: yes

Sequence of Cytochrome c isoform 1 wild type, P00044 (P00044 whole entry, canonical isoform): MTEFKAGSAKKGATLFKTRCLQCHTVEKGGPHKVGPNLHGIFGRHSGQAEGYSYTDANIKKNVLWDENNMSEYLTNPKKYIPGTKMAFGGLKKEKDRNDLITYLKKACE
Sequence of Cytochrome c isoform 1 H39Y, P00044 (P00044 whole entry H39Y, canonical isoform): as the sequence (P00044 whole entry, canonical isoform) above, with H39Y counted along it
Sequence of Cytochrome c isoform 1 H32Y, P00044 (P00044 whole entry H32Y, canonical isoform): as the sequence (P00044 whole entry, canonical isoform) above, with H32Y counted along it

Substance | ddG of mutation (higher = less stable) (structure 1YCC) | denaturant m value (structure 1YCC) | denaturant midpoint (higher = more stable) (structure 1YCC) | unfolding free energy (structure 1YCC) | denaturant m value | denaturant midpoint (higher = more stable) [M] | unfolding free energy
Cytochrome c isoform 1 H32Y, P00044 | 7.61 kJ/mol and 8.79 kJ/mol | 2.41 kcal/mol/M and 2.39 kcal/mol/M | 1.4 M and 1.1 M | 14.8 kJ/mol and 13.4 kJ/mol | – | – | –
Cytochrome c isoform 1 H39Y, P00044 | 2.51 kJ/mol | 2.87 kcal/mol/M | 1.6 M | 19.7 kJ/mol | – | – | –
Cytochrome c isoform 1 wild type, P00044 | – | – | – | – | 2.96 kcal/mol/M and 2.94 kcal/mol/M | 1.8 | 22.4 kJ/mol and 22.2 kJ/mol
